In the supplement of paper PMC9170038:

What was measured:
[1] = tested on: MS2 coat protein; experiment: apparent KD of MS2 coat protein, switch ON state; designed switch direction (-1 OFF switch, 1 ON switch): -1; higher = weaker reporter binding; conditions: FMN input: 0 or 200 uM; Eterna round: R93 (includes R88 designs)
How it was run: (§1)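 The buffer was 100 mM Tris-HCl pH 7.5 with 80 mM KCl and 4 mM MgCl2, used without or with constant ligand. In it, RNA switches transcribed on-chip from Illumina sequencing clusters were titrated with SNAP-549-labelled MS2 coat protein in twofold steps from 0.7 or 1.5 nM to 3 µM. Apparent KD for each design is the median of its normalised cluster binding-curve fits.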

[2] = tested on: MS2 coat protein; experiment: apparent KD of MS2 coat protein, switch OFF state (with FMN for OFF switches, without FMN for ON switches); designed switch direction (-1 OFF switch, 1 ON switch): -1; higher = weaker reporter binding; conditions: FMN input: 0 or 200 uM; Eterna round: R93 (includes R88 designs)
How it was run: as §1

Row | Sequence | apparent KD of MS2 coat protein [1] [nM] | apparent KD of MS2 coat protein [2] [nM]
1 | AAGAGUAGAGGAUAUACGGGAAAAGAGUCGAAAGACUCAAAACAUGAGGAUCACCCAUGUAGAAGGCUACUCAA [Hyphema Seclusion Mod 62% 6] | 87.7 | 102
2 | AAGCACAGAGGAUAUACAUGGGUAAAAAAAAAAAAAAAAAAACAUGAGGAUCACCCAUGUAGAAGGCUGUGCAA | 32.6 | 24.3
3 | AAGCUGCUAGGAUAUACAGCAGGGAUUCGAAAACCCACGAAACAUGAGGAUCACCCAUGUAGAAGGAGUAGGGA [Attixe] | 22.9 | 15.2
4 | AAGGGACAUGAGGAUCACCCAUGUCAGGAUAUGCUAUGGAAAAAUAAAAUAAAACAUAGCAGAAGGGAUAAAAA [Mat - Exclusion 1 - Eli mod - D32] | 23 | 51.1
5 | AAGGGACAUGAGGAUCACCCAUGUCAGGAUAUGCUAUGGAAAAUAAAAAUAAAACAUAGCAGAAGGGAUAAAAA [Denovo 3] | 20.2 | 45.4
6 | AAGGGACAUGAGGAUCACCCAUGUCAGGAUAUGCUAUGGAAAUAAAAAAUAAAACAUAGCAGAAGGGACAAAAA [Mat - Exclusion 1 - Eli mod - D33] | 41.2 | 67.6
7 | AAGGGACAUGAGGAUCACCCAUGUCAGGAUAUGCUAUGGAAAUAAAAAAUAAAACAUAGCAGAAGGGACACCAA [Mat - Exclusion 1 - Eli mod - D49] | 24 | 39.2
8 | AAGGGACAUGAGGAUCACCCAUGUGAGGAUAUGAUGCGAAUAAAGAAAGAAGAAAGCAUCAGAAGGCACACCAA [58%, Disencluded 3, 7] | 67.8 | 146
9 | AAGUUACAUGAGGAUCACCCAUGUGAGGAUAUGUGUAUCCCUAAAAAAGUGUGGGACCACAGAAGGUACUUGGA [Mod 2 of Atanri by ViennaUCT, Round 1] | 42.9 | 44.5
10 | AAGUUAUUAGGAUAUACUUGUGCGAUUAAUACGUUGAUAUUACAUGAGGAUCACCCAUGUAGAAGGAAUAAAAA [JR_Exc002_Sub412] | 24.4 | 19.4
11 | AAGUUGCUAGGAUAUACUUGGGCAACAAAUAAACUAAUAUAACAUGAGGAUCACCCAUGUAGAAGGAGCAGAAA [JR_Exc002_Sub206] | 31.8 | 34.9
12 | AAUAACAGAGGAUAUGCAAAAAUAAGCGGAAACGCAAGAAAACAUGAGGAUCACCCAUGUAGAAGGCUGGAUAA [Tetraloop hairpin BlockHead Variations] | 24.6 | 16.7
13 | AAUAAUGCAGGAUAUACUAAAGAAAUGAAAAGAAAUAAAGAACAUGAGGAUCACCCAUGUAGAAGGGCAAAUAA [Yakareb] | 52 | 29.3
14 | AAUGAUUUAGGAUAUACAUGAGGAUCACCCAUGUUCAAAUCGUGGGUCAGGUGAGAAGGUAGAAGGAAAUCACU [Soberior] | 113 | 185
15 | AAUUAGGUAGGAUAUACAUGAGGAUCACCCAUGUGGAAAAAAAACUACGAAAAAGAAUGUAGAAGGACCUAAAA [Ex 3 Frozen] | 18.8 | 21.9
16 | AAUUAGUGAGGAUAUACAUGAGGAUCACCCAUGUGUAAAAAAAAACGCAAAAAAGAAUGUAGAAGGCACUAAAA [Ex 3 Cold] | 20.3 | 37.9
17 | ACAAACCAAGGAUAUACAUGAGGAUCACCCAUGUGUUCGGCGUUUAGCAUGGGCAGCAGUAGAAGGUGGAGAAA [Dilareat] | 37.4 | 93.1
18 | ACAGUUACAGGAUAUACAUGGGUGAAAAAAGUAUAUCCACUACAUGAGGAUCACCCAUGUAGAAGGGUAACUGA [Ex2 Design 174: Random 3] | 18.6 | 12.3
19 | ACCACACAUGAGGAUCACCCAUGUGAGGAUAUCUAGAAAACCUCAUGUAAAAAAAUCUAGAGAAGGCAUAUGAA [Design 93: Pseudoknot C] | 38.3 | 28.4
20 | ACGAAGAGAGGAUAUACGAACAUGUCAAAAGACGUGAAGGGACAUGAGGAUCACCCAUGUAGAAGGCUCUUCGA [Mat - Exclusion 2 - JL mod - D10] | 45.4 | 167

Row | Sequence | apparent KD of MS2 coat protein [1] [nM] | apparent KD of MS2 coat protein [2] [nM]
21 | AGAAAGUCAGGAUAUACGAACAAGAAAAAAGACGAGAACGGACAUGAGGAUCACCCAUGUAGAAGGGACAAGAA [Diamond 13] | 73.5 | 36.3
22 | AGAACGUGAGGAUAUACUAACAAACCUCAACAAACAAACAGACAUGAGGAUCACCCAUGUAGAAGGCACAAAAA [EXC - 2] | 54.2 | 27.2
23 | AGAAUACAUGAGGAUCACCCAUGUAAGGAUAUGUGAAGAAAAAGAAAAGAAAAGAAACACAGAAGGUACAAAAG [EX 1 May 18] | 30 | 65.8
24 | AGAAUACAUGAGGAUCACCCAUGUGAGGAUAUCAGAAGAAAAAGAAAAGAAAAGAAACUGAGAAGGCACAAAAG [EX 1 May 15] | 35.7 | 66.1
25 | AGCAAACAUGAGGAUCACCCAUGUCAGGAUAUGAACGAAAAUAAAUAAAAAUAAAAGUUCAGAAGGGACGAGCA [66%, Wbt, 25] | 43.2 | 50.1
26 | AGCAAGAGAGGAUAUACAUAGGAAAAAAAAGUUAGAUCCCUACAUGAGGAUCACCCAUGUAGAAGGCUCUGGCA [Ex2 Design 153: Sub-opt 17] | 42.2 | 37.1
27 | AGCUAGCAAGGAUAUACGAACAUGUCAAAAGACGUGAAGGGACAUGAGGAUCACCCAUGUAGAAGGUGCUAGCA [JL 74% mod 8] | 36.6 | 127
28 | AGCUAGCGAGGAUAUACGAACAUGUCAAAAGACGUGAAGGGACAUGAGGAUCACCCAUGUAGAAGGUGCUAGCA [JL 74% mod 7] | 31.8 | 70.3
29 | AGCUAGUCAGGAUAUACGAAAACGAACGAAGCUGAGAAGGGACAUGAGGAUCACCCAUGUAGAAGGGACUAGCA [Diamond 33] | 36.4 | 107
30 | AGCUAGUCAGGAUAUACGAACAUGUAAAAAGACGUGAAGGGACAUGAGGAUCACCCAUGUAGAAGGGACUAGAA [74%, Web mod - With 2 less C's] | 46.7 | 91.3
31 | AGCUAGUCAGGAUAUACGAACAUGUCAAAAGACGUGAAGGGACAUGAGGAUCACCCAUGUAGAAGGGACUAGCA [WEB mod] | 35.4 | 138
32 | AGCUAGUCAGGAUAUACGAACAUGUCAAAAGACGUGAAGGGACAUGAGGAUCACCCAUGUAGAAGGGACUAGCU [salish99-Ex2-20] | 28.8 | 106
33 | AGCUAGUCAGGAUAUACGAACAUGUCAAAAGACGUGAAUAAACAUGAGGAUCACCCAUGUAGAAGGGACUAGCA [Mat - Exclusion 2 - JL-Eli mod - D53] | 18.3 | 14.8
34 | AGCUAGUCAGGAUAUACGAACAUGUCAGAAGACGUGAAGGGACAUGAGGAUCACCCAUGUAGAAGGGACUAGCG [74%, Web mod - With 2 more G's] | 34.9 | 117
35 | AGCUAGUCAGGAUAUACGAGAAUGUCAAAAGACGUGAAGGGACAUGAGGAUCACCCAUGUAGAAGGGACUAGCA [Diamond 23] | 39.3 | 208
36 | AGCUAGUCAGGAUAUACGGACAUGUCAGGAGACGUGAAGGGACAUGAGGAUCACCCAUGUAGAAGGGACUAGCG [74%, Web mod - With 4 more G's] | 35.5 | 106
37 | AGCUAGUGAGGAUAUACGAACAUGUCAAAAGACGUGAAAAAACAUGAGGAUCACCCAUGUAGAAGGCACUAGCA [Mat - Exclusion 2 - JL-Eli mod - D56] | 19.2 | 16.9
38 | AGCUAGUGAGGAUAUACGAACAUGUCAACGGACUGUAAGGGACAUGAGGAUCACCCAUGUAGAAGGCACUAGCA [Diamond 57] | 67.2 | 165
39 | AGGAAACAUGAGGAUCACCCAUGUCAGGAUAUAGAAAAGAAAAGAAAAGAAAGAAGAACUAGAAGGGACAAGAA [Scorpion I] | 27.7 | 26.3
40 | AGGAAACAUGAGGAUCACCCAUGUCAGGAUAUAGGAAAGAAAAGAAAAGAAAGAAGAAUUAGAAGGGACAAGAA [King Scorpion] | 23.5 | 16.5
